Where a chain is given by its changes, count along the chain named. Numbers in names are those of the source.
B1: 2382F08 (designed binder)
chain: MGVSDVPRDLEVVAATPTSLLISWDAPAEAYGYYRITYGETGGNSPVQEFTVPVSKGTATISGLKPGVDYTITVYAVEFTYPGSGYYHRPISINYRTEIDKPSQHHHHHH
B2: 2451H01 (designed binder)
chain: B1 chain with E29A, A30G, F79Y, T80D, Y81F
B3: 2451B05 (designed binder)
chain: B1 chain with E29G, A30G, V54S, T80D
B4: 2382H11 (designed binder)
chain: B1 chain with E29D, A30G, S55F, T80D
B5: 2451F03 (designed binder)
chain: B1 chain with A26P, A30G, T80N, Y81F
B6: 2451D05 (designed binder)
chain: B1 chain with E29G, T80D, Y81F
B7: 2382F09 (designed binder)
chain: B1 chain with E29A, F79Y, T80D, Y81F
B8: 2451B02 (designed binder)
chain: B1 chain with E29A, T80D
B9: 2451A02 (designed binder)
chain: B1 chain with E29A, A30G, T80P, Y81F
B10: 2382H07 (designed binder)
chain: B1 chain with E29D, V54G, T80D, Y81F
B11: 2451G01 (designed binder)
chain: B1 chain with E29G, A30G, V54S, T80D, Y81F
B12: 1922G04(R25D) (designed binder)
chain: MGVSDVPRDLEVVAATPTSLLISWDPPSHAYGYYRITYGETGGNSPVQEFTVPIGKGTATISGLKPGVDYTITVYAVEYPWKGSGYYHRPISINYRTGSGSHHHHHH
B13: 1922G04(R25E) (designed binder)
chain: B12 chain with D25E
B14: 2381D02 (designed binder)
chain: MGVSDVPRDLEVVAATPTSLLISWEPFSRLPGGGEYYRITYGETGGNSPLQQFTVPGSKGTATISGLKPGVDYTITVYAVEYPYDHSGYYHRPISINYRTEIDKPSQHHHHHH
B15: 2381G03 (designed binder)
chain: B14 chain with Y82F, D85A
B16: 2381H03 (designed binder)
chain: B14 chain with D85A, Y90F
B17: 2381B06 (designed binder)
chain: B14 chain with D85P
B18: 2381A04 (designed binder)
chain: B14 chain with D85P, H86F

Target: T1, human PCSK9 (proprotein convertase subtilisin kexin type 9) (human, UniProt Q8NBP7 31-692)
Assay: cell-based or functional assay

LDLR Depletion (% inhibition at 75 nM) [%]	LDLR Depletion EC50 [nM]	Binder
105	–	B1
95.8	–	B2
91.7	–	B3
117	–	B4
113	–	B5
115	–	B6
110	–	B7
71.4	–	B8
106	–	B9
86.2	–	B10
90.8	–	B11
–	29	B12
–	29	B13
185	–	B14
70.2	–	B15
89.8	–	B16
120	–	B17
100	–	B18

Target: T1, human PCSK9 (proprotein convertase …)
Assay: PCSK9:EGFA FRET, competitor EGFA peptide

EC50 [nM]	Binder
2.5	B1
2.8	B2
6.3	B3
2.9	B4
2.8	B5
2.8	B6
3.1	B7
5.3	B8
3.2	B9
2.7	B10
3.8	B11
2.5	B12
3.5	B13
3.1	B14
3.4	B15
3.4	B16
3.5	B17
3.3	B18
